The text below walks through data of IntAct's records for PubMed 26388029.

One assay deals with ubp1_human USP1 (UniProt O94782).
Sequence of ubp1_human USP1 (O94782 whole entry): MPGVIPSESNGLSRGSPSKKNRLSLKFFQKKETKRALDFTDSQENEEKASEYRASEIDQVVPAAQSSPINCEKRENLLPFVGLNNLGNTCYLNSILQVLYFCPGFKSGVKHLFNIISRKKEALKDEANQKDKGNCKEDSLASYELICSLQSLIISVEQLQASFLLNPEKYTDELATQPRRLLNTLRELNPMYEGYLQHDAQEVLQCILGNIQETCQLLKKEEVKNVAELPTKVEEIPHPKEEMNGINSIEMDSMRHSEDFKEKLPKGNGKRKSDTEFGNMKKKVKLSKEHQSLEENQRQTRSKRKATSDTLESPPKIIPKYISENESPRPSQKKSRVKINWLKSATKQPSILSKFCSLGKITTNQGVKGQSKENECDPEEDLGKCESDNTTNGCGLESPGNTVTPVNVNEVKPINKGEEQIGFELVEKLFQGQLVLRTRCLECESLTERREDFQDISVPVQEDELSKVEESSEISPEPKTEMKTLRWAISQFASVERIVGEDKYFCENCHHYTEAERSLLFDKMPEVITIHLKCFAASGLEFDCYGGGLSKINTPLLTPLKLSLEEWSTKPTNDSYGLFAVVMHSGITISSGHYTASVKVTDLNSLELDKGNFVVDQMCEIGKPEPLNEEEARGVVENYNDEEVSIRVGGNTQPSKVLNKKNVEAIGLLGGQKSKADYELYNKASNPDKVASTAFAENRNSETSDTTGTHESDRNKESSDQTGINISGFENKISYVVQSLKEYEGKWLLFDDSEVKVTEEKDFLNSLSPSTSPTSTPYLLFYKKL

Sequence of USP46, P62068-1 (P62068 whole entry): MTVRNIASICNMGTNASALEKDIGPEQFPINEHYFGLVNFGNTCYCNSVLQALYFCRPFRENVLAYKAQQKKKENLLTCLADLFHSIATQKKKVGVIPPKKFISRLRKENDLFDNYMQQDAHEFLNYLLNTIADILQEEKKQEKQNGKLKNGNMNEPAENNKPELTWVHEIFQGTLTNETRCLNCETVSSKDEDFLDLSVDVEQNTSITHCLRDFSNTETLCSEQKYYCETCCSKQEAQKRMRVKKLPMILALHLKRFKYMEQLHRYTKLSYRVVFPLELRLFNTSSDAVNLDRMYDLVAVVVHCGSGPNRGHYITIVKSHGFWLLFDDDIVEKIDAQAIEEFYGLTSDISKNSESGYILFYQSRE

For the substance “WD repeat-containing protein 48 (Homo sapiens), Q8TAF3-1 K214E;W256A;R272D”, the “effect of a mutation on the interaction” value with ubp1_human USP1 is “disrupting interaction strength”; with USP46, P62068-1 it was “disrupting interaction strength”. On to “WD repeat-containing protein 48 (Homo sapiens), Q8TAF3-1 S170Y”, for which the “effect of a mutation on the interaction” value with USP46, P62068-1 was “decreasing interaction strength”.
